In patent EP3284477A1, “COMPOSITION COMPRISING SELF-ASSEMBLING PEPTIDES FOR USE IN TREATMENT OF GINGIVITIS, PERIODONTITIS AND/OR PERI-IMPLANTITIS” (Credentis AG, priority 2016, dated 2018):

Key:
[1] = tested on: Human Periodontal Ligament cells; assay: Cell migration on a periodontal ligament model (cell pool / SAP gel / human dentin); assay type: cell-based; conditions: 15 mg/ml gel on human dentin, 8 days of incubation, visually assessed
Description: (§1) The following figures and examples are supposed to illustrate and further explain, but not to limit the invention. Any references cited herein are herewith fully incorporated. • Fig. 1: Bacterial density after release of antibiotics (150 mg/ml) from self-assembling peptide gels (15 mg/ml), and the impact thereof to the growth of P. gingivalis (A-C) and S. sanguinis (D-F). Circles: metronidazol, stars: tetracycline, triangle: ciprofloxacin, squares: doxycycline hyclate; control: gel without API A/D P11-4 gel. B/E P11-13/14 gel. C/F P11-28/29 gel • Fig. 2: Cross section of demineralized tooth after incubation with polymeric P11-4. […] 100µl peptide / well, c= 20 mg/ml, in PBS, quantified with Qubit R Protein Assay Ref: Q33211. […] 100 µl peptide / well, c= 20 mg/ml, in PBS, quantified with Qubit R Protein Assay Ref: Q33211. […] Since NO3- are monovalent ions, and ionic strength of the solution was below 130 mM, P11-8 self-assembling was slowed down. On the other hand self-assembling kinetic of P11-8 with DMEM and NaCl solution is very similar. […] Human Periodontal Ligament cells were placed in a cell pool (A) and the SAP gel (C) placed on the human dentin (B). The cell/SAP-gel/ dentin was then incubated for 8 days and visually assessed resulting in migration of up to 5 mm. Scale bar: 1 mm

[2] = Mechanical properties (storage modulus G') of gels in different ion and buffer systems; assay type: physicochemical; conditions: compared with Tris-NaCl
Description: as §1

bacteria = assay: Degradation of P11-4 peptide gel in presence of bacteria (Qubit Protein Assay); assay type: physicochemical; conditions: 100 µl peptide / well, c= 20 mg/ml, in PBS
Description: as §1

[3] = Stability of P11 peptide gels in absence of cells or bacteria (peptide release into supernatant, Qubit Protein Assay); assay type: physicochemical; design: unit not given here; conditions: 7 days, 100µl peptide / well, c= 20 mg/ml, in PBS
Description: as §1

S. sanguinis = assay: Release of antibiotics from self-assembling peptide gels: impact on bacterial growth (turbidity OD600); assay type: cell-based; conditions: antibiotic 150 mg/ml released from self-assembling peptide gels (15 mg/ml), aerobic, OD600 normalized to gel without antibiotic, over 120 hours
Description: (§2) The following figures and examples are supposed to illustrate and further explain, but not to limit the invention. Any references cited herein are herewith fully incorporated. • Fig. 1: Bacterial density after release of antibiotics (150 mg/ml) from self-assembling peptide gels (15 mg/ml), and the impact thereof to the growth of P. gingivalis (A-C) and S. sanguinis (D-F). Circles: metronidazol, stars: tetracycline, triangle: ciprofloxacin, squares: doxycycline hyclate; control: gel without API A/D P11-4 gel. B/E P11-13/14 gel. C/F P11-28/29 gel • Fig. 2: Cross section of demineralized tooth after incubation with polymeric P11-4. […] 100µl peptide / well, c= 20 mg/ml, in PBS, quantified with Qubit R Protein Assay Ref: Q33211. […] 100 µl peptide / well, c= 20 mg/ml, in PBS, quantified with Qubit R Protein Assay Ref: Q33211. […] Since NO3- are monovalent ions, and ionic strength of the solution was below 130 mM, P11-8 self-assembling was slowed down. […] The cell/SAP-gel/ dentin was then incubated for 8 days and visually assessed resulting in migration of up to 5 mm. […]
(§3) Furthermore 100 uL/well of a defined anaerobic P. gingivalis or aerobic S. anguines bacterial culture ([…] e.g. 990 µl BHI medium, 10 µl 10^8 CFU/ml bacteria suspension) were added onto the gels. Impact on growth was assessed by measuring turbidity at OD600 nm. […]

P. gingivalis = assay: as above; assay type: cell-based; conditions: antibiotic 150 mg/ml released from self-assembling peptide gels (15 mg/ml), anaerobic, OD600 normalized to gel without antibiotic, over 120 hours
Description: as §2, §3

Compound	migration [1]	storage modulus G' ([2]; gel formed in DMEM (pH 7.4, ionic strength 130 mM))	storage modulus G' ([2]; gel formed in artificial saliva (Tris 120 mM, Ca(NO3) 4 mM, KH2PO4 2.4 mM, pH 7.2), DMEM, Tris MgSO4)	stability (time the peptide is stable) (bacteria)	release of peptide into the supernatant [3]	inhibition of bacterial growth (relative bacterial density) (S. sanguinis)	inhibition of bacterial growth (relative bacterial density) (P. gingivalis)
QQRFEWEFEQQ [P11-4, self-assembling peptide]	up to 5 mm	lower storage modulus	storage moduli between G'(NaCl and MgSO^4) was reached	more than 3 days	less than one	–	–
Cc1ncc([N+](=O)[O-])n1CCO [metronidazole]	–	–	–	–	–	low effectivity in most systems at this concentration	low effectivity in most systems at this concentration
